# Assay results taken from IntAct's records for PubMed 22792074.
# B1: Fanconi anemia group J protein (Homo sapiens), Q9BX63 (parent)
# chain: MSSMWSEYTIGGVKIYFPYKAYPSQLAMMNSILRGLNSKQHCLLESPTGSGKSLALLCSALAWQQSLSGKPADEGVSEKAEVQLSCCCACHSKDFTNNDMNQGTSRHFNYPSTPPSERNGTSSTCQDSPEKTTLAAKLSAKKQASIYRDENDDFQVEKKRIRPLETTQQIRKRHCFGTEVHNLDAKVDSGKTVKLNSPLEKINSFSPQKPPGHCSRCCCSTKQGNSQESSNTIKKDHTGKSKIPKIYFGTRTHKQIAQITRELRRTAYSGVPMTILSSRDHTCVHPEVVGNFNRNEKCMELLDGKNGKSCYFYHGVHKISDQHTLQTFQGMCKAWDIEELVSLGKKLKACPYYTARELIQDADIIFCPYNYLLDAQIRESMDLNLKEQVVILDEAHNIEDCARESASYSVTEVQLRFARDELDSMVNNNIRKKDHEPLRAVCCSLINWLEANAEYLVERDYESACKIWSGNEMLLTLHKMGITTATFPILQGHFSAVLQKEEKISPIYGKEEAREVPVISASTQIMLKGLFMVLDYLFRQNSRFADDYKIAIQQTYSWTNQIDISDKNGLLVLPKNKKRSRQKTAVHVLNFWCLNPAVAFSDINGKVQTIVLTSGTLSPMKSFSSELGVTFTIQLEANHIIKNSQVWVGTIGSGPKGRNLCATFQNTETFEFQDEVGALLLSVCQTVSQGILCFLPSYKLLEKLKERWLSTGLWHNLELVKTVIVEPQGGEKTNFDELLQVYYDAIKYKGEKDGALLVAVCRGKVSEGLDFSDDNARAVITIGIPFPNVKDLQVELKRQYNDHHSKLRGLLPGRQWYEIQAYRALNQALGRCIRHRNDWGALILVDDRFRNNPSRYISGLSKWVRQQIQHHSTFESALESLAEFSKKHQKVLNVSIKDRTNIQDNESTLEVTSLKYSTSPYLLEAASHLSPENFVEDEAKICVQELQCPKIITKNSPLPSSIISRKEKNDPVFLEEAGKAEKIVISRSTSPTFNKQTKRVSWSSFNSLGQYFTGKIPKATPELGSSENSASSPPRFKTEKMESKTVLPFTDKCESSNLTVNTSFGSCPQSETIISSLKIDATLTRKNHSEHPLCSEEALDPDIELSLVSEEDKQSTSNRDFETEAEDESIYFTPELYDPEDTDEEKNDLAETDRGNRLANNSDCILAKDLFEIRTIKEVDSAREVKAEDCIDTKLNGILHIEESKIDDIDGNVKTTWINELELGKTHEIEIKNFKPSPSKNKGMFPGFK
# Variants of: B1
# Conditions: with brca1_human BRCA1, P38398
# Chain of brca1_human BRCA1, P38398 (P38398 whole entry, looked up): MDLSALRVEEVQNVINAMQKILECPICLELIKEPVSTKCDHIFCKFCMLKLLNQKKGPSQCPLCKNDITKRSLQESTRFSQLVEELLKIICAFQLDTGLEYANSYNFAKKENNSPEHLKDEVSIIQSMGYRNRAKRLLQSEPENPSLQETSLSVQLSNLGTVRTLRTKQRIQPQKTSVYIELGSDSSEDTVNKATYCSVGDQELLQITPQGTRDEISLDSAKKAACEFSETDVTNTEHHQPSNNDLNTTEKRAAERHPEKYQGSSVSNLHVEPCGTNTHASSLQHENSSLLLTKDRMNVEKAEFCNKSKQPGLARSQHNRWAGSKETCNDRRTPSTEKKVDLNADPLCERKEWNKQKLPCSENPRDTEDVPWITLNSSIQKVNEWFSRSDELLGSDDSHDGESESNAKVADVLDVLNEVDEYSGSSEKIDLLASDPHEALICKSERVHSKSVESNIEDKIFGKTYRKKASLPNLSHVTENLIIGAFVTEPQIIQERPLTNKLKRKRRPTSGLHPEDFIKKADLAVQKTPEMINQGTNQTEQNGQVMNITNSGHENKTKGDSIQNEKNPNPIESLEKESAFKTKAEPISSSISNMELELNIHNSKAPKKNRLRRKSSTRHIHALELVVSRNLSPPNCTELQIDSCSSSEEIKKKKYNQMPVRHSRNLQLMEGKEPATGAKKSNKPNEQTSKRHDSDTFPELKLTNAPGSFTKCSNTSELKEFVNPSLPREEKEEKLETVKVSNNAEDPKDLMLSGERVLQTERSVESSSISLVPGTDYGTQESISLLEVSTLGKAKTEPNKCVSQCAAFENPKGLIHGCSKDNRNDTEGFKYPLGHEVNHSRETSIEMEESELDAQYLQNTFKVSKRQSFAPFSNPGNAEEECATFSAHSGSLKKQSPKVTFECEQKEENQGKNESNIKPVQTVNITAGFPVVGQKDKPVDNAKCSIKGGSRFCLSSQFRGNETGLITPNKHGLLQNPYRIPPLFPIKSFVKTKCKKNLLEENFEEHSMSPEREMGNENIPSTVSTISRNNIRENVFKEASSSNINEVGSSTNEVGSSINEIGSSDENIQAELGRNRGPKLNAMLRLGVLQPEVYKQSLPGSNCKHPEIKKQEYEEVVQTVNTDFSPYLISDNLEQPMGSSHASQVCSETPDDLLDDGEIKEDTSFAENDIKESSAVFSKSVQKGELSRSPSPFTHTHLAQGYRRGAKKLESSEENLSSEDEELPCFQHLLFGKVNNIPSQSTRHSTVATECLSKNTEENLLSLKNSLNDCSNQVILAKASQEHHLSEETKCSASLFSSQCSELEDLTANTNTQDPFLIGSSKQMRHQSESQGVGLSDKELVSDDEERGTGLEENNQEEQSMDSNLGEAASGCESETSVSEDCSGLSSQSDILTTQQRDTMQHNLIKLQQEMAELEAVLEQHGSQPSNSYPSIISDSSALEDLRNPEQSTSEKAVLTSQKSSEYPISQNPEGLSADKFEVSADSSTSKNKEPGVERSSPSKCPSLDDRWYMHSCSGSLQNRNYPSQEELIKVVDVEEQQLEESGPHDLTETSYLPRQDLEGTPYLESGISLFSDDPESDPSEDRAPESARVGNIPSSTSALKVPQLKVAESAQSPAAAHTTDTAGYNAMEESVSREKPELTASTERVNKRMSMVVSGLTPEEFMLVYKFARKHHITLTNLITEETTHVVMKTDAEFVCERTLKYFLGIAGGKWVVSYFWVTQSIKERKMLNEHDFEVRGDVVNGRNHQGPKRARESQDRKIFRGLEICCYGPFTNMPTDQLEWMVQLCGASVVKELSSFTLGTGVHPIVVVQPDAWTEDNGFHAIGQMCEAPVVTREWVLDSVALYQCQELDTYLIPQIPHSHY
row,effect of a mutation on the interaction,Variant
1,with no effect,K1249Q
2,with no effect,K1249R
